Assay results: paper PMC8809517, “Cofactor-independent RNA editing by a synthetic S-type PPR protein”

What was measured:
Assay in all cases: high-throughput RNA pulldown from lysate on Ni-NTA beads; HRP: 50 mM Tris pH 8, 150 mM NaCl, 1 mM beta-mercaptoethanol, 50 ug/ml BSA, 3 ug/ml yeast RNA, 0.5% heparin; ITC and FP: Tris pH 8, 200 mM KCl, 5% glycerol; MST: 50 mM Tris pH 8, 200 mM NaCl, 1 mM DTT, BSA, heparin, 0.05% Tween 20
Settings in all cases: tags: N-terminal His-eGFP
[1] = biological target: T1, GFP-9S library array, motif 4 ND N98T;D124M (synthetic construct, N98T;D124M)
T1 chain: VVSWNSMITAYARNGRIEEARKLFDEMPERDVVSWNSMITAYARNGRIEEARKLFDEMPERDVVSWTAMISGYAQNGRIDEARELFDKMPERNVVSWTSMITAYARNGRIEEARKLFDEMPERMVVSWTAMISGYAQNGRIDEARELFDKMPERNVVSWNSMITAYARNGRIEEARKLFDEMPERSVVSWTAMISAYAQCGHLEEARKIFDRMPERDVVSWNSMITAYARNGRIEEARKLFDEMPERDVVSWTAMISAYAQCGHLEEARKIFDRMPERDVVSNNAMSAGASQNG

[2] = biological target: T2, GFP-9S library array, motif 4 ND N98W;D124S (synthetic construct, N98W;D124S)
T2 chain: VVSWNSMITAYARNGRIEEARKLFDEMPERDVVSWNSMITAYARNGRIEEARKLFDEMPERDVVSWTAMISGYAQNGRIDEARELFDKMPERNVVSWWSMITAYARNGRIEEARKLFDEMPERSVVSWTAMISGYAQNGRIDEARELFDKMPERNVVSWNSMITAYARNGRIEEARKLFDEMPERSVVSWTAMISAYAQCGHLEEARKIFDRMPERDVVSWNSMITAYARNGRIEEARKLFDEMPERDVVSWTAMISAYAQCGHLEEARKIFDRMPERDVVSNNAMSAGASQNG

[3] = biological target: T3, GFP-9S library array, motif 4 ND N98E;D124W (synthetic construct, N98E;D124W)
T3 chain: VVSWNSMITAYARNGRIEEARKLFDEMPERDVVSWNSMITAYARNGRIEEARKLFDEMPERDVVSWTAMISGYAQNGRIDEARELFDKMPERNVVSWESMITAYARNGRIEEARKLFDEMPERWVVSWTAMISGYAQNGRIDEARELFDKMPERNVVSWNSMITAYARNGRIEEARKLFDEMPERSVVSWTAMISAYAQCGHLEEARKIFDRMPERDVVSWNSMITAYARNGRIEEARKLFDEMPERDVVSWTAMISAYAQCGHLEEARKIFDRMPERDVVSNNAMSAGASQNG

[4] = biological target: T4, GFP-9S library array, motif 4 ND N98V;D124E (synthetic construct, N98V;D124E)
T4 chain: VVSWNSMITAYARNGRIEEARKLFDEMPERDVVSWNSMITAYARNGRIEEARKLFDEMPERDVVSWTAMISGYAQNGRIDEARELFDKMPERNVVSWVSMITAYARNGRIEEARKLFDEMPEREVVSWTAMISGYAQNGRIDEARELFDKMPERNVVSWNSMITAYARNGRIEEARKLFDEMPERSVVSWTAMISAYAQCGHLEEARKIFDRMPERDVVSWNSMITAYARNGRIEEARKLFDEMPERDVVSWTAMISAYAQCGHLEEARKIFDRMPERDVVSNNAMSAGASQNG

[5] = biological target: T5, GFP-9S library array, motif 4 ND N98H;D124L (synthetic construct, N98H;D124L)
T5 chain: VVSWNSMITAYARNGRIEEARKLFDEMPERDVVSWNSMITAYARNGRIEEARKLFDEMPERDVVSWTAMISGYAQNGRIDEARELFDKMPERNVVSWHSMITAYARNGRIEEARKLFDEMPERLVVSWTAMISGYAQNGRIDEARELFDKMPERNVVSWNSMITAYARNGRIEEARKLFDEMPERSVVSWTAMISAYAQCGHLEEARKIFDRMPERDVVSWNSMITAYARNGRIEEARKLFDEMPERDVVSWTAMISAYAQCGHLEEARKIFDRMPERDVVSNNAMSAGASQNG

## AUUAAACGUGA (ssRNA) [IR-rpoA-A]
[1]; label: 5' IRDye 800CW
  Kd: 0.162 µM
[2]; label: 5' IRDye 800CW
  Kd: 0.247 µM
[3]; label: 5' IRDye 800CW
  Kd: 0.63 µM
[4]; label: 5' IRDye 800CW
  Kd: 0.168 µM
[5]; label: 5' IRDye 800CW
  Kd: 0.0821 µM

## AUUAGACGUGA (ssRNA) [Cy5-rpoA-G]
[1]; label: 5' Cy5
  Kd: 0.107 µM
[2]; label: 5' Cy5
  Kd: 0.0798 µM
[3]; label: 5' Cy5
  Kd: 0.198 µM
[4]; label: 5' Cy5
  Kd: 0.167 µM
[5]; label: 5' Cy5
  Kd: 0.0556 µM

## AUUAUACGUGA (ssRNA) [IR-rpoA-U]
[1]; label: 5' IRDye 800CW
  Kd: 0.165 µM
[2]; label: 5' IRDye 800CW
  Kd: 0.263 µM
[3]; label: 5' IRDye 800CW
  Kd: 0.648 µM
[4]; label: 5' IRDye 800CW
  Kd: 0.244 µM
[5]; label: 5' IRDye 800CW
  Kd: 0.0327 µM

## AUUACACGUGA (ssRNA) [Cy5-rpoA]
[1]; label: 5' Cy5
  Kd: 0.101 µM
[2]; label: 5' Cy5
  Kd: 0.0892 µM
[3]; label: 5' Cy5
  Kd: 0.213 µM
[4]; label: 5' Cy5
  Kd: 0.287 µM
[5]; label: 5' Cy5
  Kd: 0.0601 µM
